The values that follow come from patent US20100260668A1 (published 2010).

The target in assay [1] is T1, VEGF (UniProt P15692-4 27-191).
T1 construct: Bought reagent; also called vascular endothelial growth factor
As to the kind of experiment: SPR (Biacore), DVD-Ig captured, VEGF in solution.
T1 sequence (P15692 other isoform, or with tags, fused parts or gaps limits assumed): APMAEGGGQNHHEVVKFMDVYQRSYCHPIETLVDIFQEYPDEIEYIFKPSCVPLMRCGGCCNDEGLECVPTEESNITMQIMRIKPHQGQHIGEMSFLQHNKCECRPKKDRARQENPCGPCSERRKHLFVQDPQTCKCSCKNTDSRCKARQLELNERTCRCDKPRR

The target in assay [2] is T2, VEGF (UniProt P15692-4 27-191).
T2 construct: Bought reagent; also called vascular endothelial growth factor
The experiment in a line: BIACORE SPR.
T2 sequence (P15692 other isoform, or with tags, fused parts or gaps limits assumed): as above

B1: DVD526 (bispecific antibody, human IgG1, lambda)
heavy: not shown
light: DIQMTQSPSSLSASVGDRVTITCRASQDVSTAVAWYQQKPGKAPKLLIYSASFLYSGVPSRFSGSGSGTDFTLTISSLQPEDFATYYCQQSYTTPPTFGQGTKVEIKRTVAAPQAVVTQESALTTSPGETVTLTCRSSTGAVTTSNYANWVQEKPDHLFTGLIGGTNNRAPGVPARFSGSLIGDKAALTITGAQTEDEAIYFCALWYSNHWVFGGGTKLTVLGQPKAAPSVTLFPPSSEELQANKATLVCLISDFYPGAVTVAWKADSSPVKAGVETTTPSKQSNNKYAASSYLSLTPEQWKSHRSYSCQVTHEGSTVEKTVAPTECS
notes: DVD-Ig; N-term; VD AB070 (VEGF), C-term; VD AB073 (DLL4); HC linker long, LC linker short; also called DVD526H; DVD526L
Turning to B1, in the assay with VEGF [1], binding was characterised by a dissociation constant (Kd) of 0.675 nM, the koff is 0.000801 s⁻¹ and the kon was found to be 1.19e+06 M⁻¹ s⁻¹.

B2: DVD462 (bispecific antibody, human IgG1, kappa)
heavy: not shown
light: DIQMTQSPSSLSASVGDRVTITCRASQDVSTAVAWYQQKPGKAPKLLIYSASFLYSGVPSRFSGSGSGTDFTLTISSLQPEDFATYYCQQSYTTPPTFGQGTKVEIKRTVAAPSVFIFPPDIVMTQSPDSLAVSLGERATISCRASESVDNYGISFMKWFQQKPGQPPKLLIYAASNQGSGVPDRFSGSGSGTDFTLTISSLQAEDVAVYYCQQSKEVPWTFGGGTKVEIKRTVAAPSVFIFPPSDEQLKSGTASVVCLLNNFYPREAKVQWKVDNALQSGNSQESVTEQDSKDSTYSLSSTLTLSKADYEKHKVYACEVTHQGLSSPVTKSFNRGEC
notes: DVD-Ig; N-term; VD AB070 (VEGF), C-term; VD AB069 (DLL4); HC linker short, LC linker long; also called DVD462H; DVD462L
With B2, in the assay with VEGF [1], the Kd amounted to 0.864 nM, the off-rate (koff) was determined as 0.000858 s⁻¹ and the kon was 993000 M⁻¹ s⁻¹.

B3: DVD496 (bispecific antibody, human IgG1, kappa)
heavy: not shown
light: DIQMTQSPSSLSASVGDRVTITCRASQDVSTAVAWYQQKPGKAPKLLIYSASFLYSGVPSRFSGSGSGTDFTLTISSLQPEDFATYYCQQSYTTPPTFGQGTKVEIKRTVAAPSVFIFPPDIQMTQSSSYLSVSLGGRVTITCKASDHINNWLAWYQQKPGNAPRLLISGATSLETGVPSRFSGSGSGKDYTLSITSLQTEDVATYYCQQYWSIPLTFGAGTKLELKRTVAAPSVFIFPPSDEQLKSGTASVVCLLNNFYPREAKVQWKVDNALQSGNSQESVTEQDSKDSTYSLSSTLTLSKADYEKHKVYACEVTHQGLSSPVTKSFNRGEC
notes: DVD-Ig; N-term; VD AB070 (VEGF), C-term; VD AB072 (DLL4); HC linker long, LC linker long; also called DVD496H; DVD496L
In the assay with VEGF [1], B3 showed a Kd of 0.311 nM, a koff of 0.00658 s⁻¹ and a kon of 2.12e+07 M⁻¹ s⁻¹.

B4: DVD508 (bispecific antibody, human IgG1, kappa)
heavy: not shown
light: DIQMTQSPSSLSASVGDRVTITCRASQDVSTAVAWYQQKPGKAPKLLIYSASFLYSGVPSRFSGSGSGTDFTLTISSLQPEDFATYYCQQSYTTPPTFGQGTKVEIKRTVAAPSVFIFPPDIQMTQSSSYLSVSLGGRVTITCKASDHINNWLAWYQQKPGNAPRLLISGATSLETGVPSRFSGSGSGKDYTLSITSLQTEDVATYYCQQYWSIPLTFGAGTKLELKRTVAAPSVFIFPPSDEQLKSGTASVVCLLNNFYPREAKVQWKVDNALQSGNSQESVTEQDSKDSTYSLSSTLTLSKADYEKHKVYACEVTHQGLSSPVTKSFNRGEC
notes: DVD-Ig; N-term; VD AB070 (VEGF), C-term; VD AB072 (DLL4); HC linker short, LC linker long; also called DVD508H; DVD508L
In the assay with VEGF [1], B4 yielded a Kd of 0.162 nM, an off-rate (koff) of 0.000213 s⁻¹ and a kon of 1.31e+06 M⁻¹ s⁻¹.

B5: DVD456 (bispecific antibody, human IgG1, kappa)
heavy: not shown
light: DIQMTQSPSSLSASVGDRVTITCRASQDVSTAVAWYQQKPGKAPKLLIYSASFLYSGVPSRFSGSGSGTDFTLTISSLQPEDFATYYCQQSYTTPPTFGQGTKVEIKRTVAAPDIVMTQSPDSLAVSLGERATISCRASESVDNYGISFMKWFQQKPGQPPKLLIYAASNQGSGVPDRFSGSGSGTDFTLTISSLQAEDVAVYYCQQSKEVPWTFGGGTKVEIKRTVAAPSVFIFPPSDEQLKSGTASVVCLLNNFYPREAKVQWKVDNALQSGNSQESVTEQDSKDSTYSLSSTLTLSKADYEKHKVYACEVTHQGLSSPVTKSFNRGEC
notes: DVD-Ig; N-term; VD AB070 (VEGF), C-term; VD AB069 (DLL4); HC linker long, LC linker short; also called DVD456H; DVD456L
Regarding B5, in the assay with VEGF [1], the affinity, expressed as Kd, was 0.281 nM; the dissociation rate constant (koff) came to 0.00448 s⁻¹; the kon stood at 1.6e+07 M⁻¹ s⁻¹.

B6: DVD470 (bispecific antibody, human IgG1, kappa)
heavy: not shown
light: DIQMTQSPSSLSASVGDRVTITCSASQDISNYLNWYQQKPGKAPKVLIYFTSSLHSGVPSRFSGSGSGTDFTLTISSLQPEDFATYYCQQYSTVPWTFGQGTKVEIKRTVAAPSVFIFPPDIQMTQSPSSLSASVGDRVTITCRASQDVSTAVAWYQQKPGKAPKLLIYSASFLYSGVPSRFSGSGSGTDFTLTISSLQPEDFATTYYCQQSYTGTVTFGQGTKVEIKRTVAAPSVFIFPPSDEQLKSGTASVVCLLNNFYPREAKVQWKVDNALQSGNSQESVTEQDSKDSTYSLSSTLTLSKADYEKHKVYACEVTHQGLSSPVTKSFNRGEC
notes: DVD-Ig; N-term; AB014 (VEGF), C-term; AB015 (DLL4); HC linker long, LC linker long; also called DVD470H; DVD470L
In the assay with VEGF [2], B6 yielded an equilibrium dissociation constant (Kd) of 0.201 nM, an off-rate (koff) of 0.00024 s⁻¹ and an association rate constant (kon) of 1.2e+06 M⁻¹ s⁻¹.

B7: DVD482 (bispecific antibody, human IgG1, kappa)
heavy: not shown
light: DIQMTQSPSSLSASVGDRVTITCSASQDISNYLNWYQQKPGKAPKVLIYFTSSLHSGVPSRFSGSGSGTDFTLTISSLQPEDFATYYCQQYSTVPWTFGQGTKVEIKRTVAAPSVFIFPPDIQMTQSPSSLSASVGDRVTITCRASQDVSTAVAWYQQKPGKAPKLLIYSASFLYSGVPSRFSGSGSGTDFTLTISSLQPEDFATTYYCQQSYTGTVTFGQGTKVEIKRTVAAPSVFIFPPSDEQLKSGTASVVCLLNNFYPREAKVQWKVDNALQSGNSQESVTEQDSKDSTYSLSSTLTLSKADYEKHKVYACEVTHQGLSSPVTKSFNRGEC
notes: DVD-Ig; N-term; AB014 (VEGF), C-term; AB015 (DLL4); HC linker short, LC linker long; also called DVD482H; DVD482L
In the assay with VEGF [2], B7 returned an equilibrium dissociation constant (Kd) of 0.2 nM, a koff of 0.000138 s⁻¹ and a kon of 687000 M⁻¹ s⁻¹.
